Measurements: IntAct's records for PubMed 17012600

B1: Protein NDR1 (Arabidopsis thaliana (Mouse-ear cress)), O48915 (parent)
chain: MNNQNEDTEGGRNCCTCCLSFIFTAGLTSLFLWLSLRADKPKCSIQNFFIPALGKDPNSRDNTTLNFMVRCDNPNKDKGIYYDDVHLNFSTINTTKINSSALVLVGNYTVPKFYQGHKKKAKKWGQVKPLNNQTVLRAVLPNGSAVFRLDLKTQVRFKIVFWKTKRYGVEVGADVEVNGDGVKAQKKGIKMKKSDSSFPLRSSFPISVLMNLLVFFAIR
partner: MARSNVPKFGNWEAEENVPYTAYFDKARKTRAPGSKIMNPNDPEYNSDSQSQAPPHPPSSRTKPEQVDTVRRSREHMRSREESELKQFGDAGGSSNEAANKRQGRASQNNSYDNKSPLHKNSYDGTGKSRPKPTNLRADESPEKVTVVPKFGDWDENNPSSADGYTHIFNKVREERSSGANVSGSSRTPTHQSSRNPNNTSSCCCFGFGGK

Variants of: B1
Settings: with rin4_arath RIN4, Q8GYN5

effect of a mutation on the interaction	Variant
disrupting interaction	MNNQAEDTEGGRNCCTCCLSFIFTAGLTSLFLWLSLRADKPKCSIQNFFIPALGKDPNSRDNTTLNFMVRCDNPNKDKGIYYDDVHLNFSTINTTKINSSALVLVGNYTVPKFYQGHKKKAKKWGQVKPLNNQTVLRAVLPNGSAVFRLDLKTQVRFKIVFWKTKRYGVEVGADVEVNGDGVKAQKKGIKMKKSDSSFPLRSSFPISVLMNLLVFFAIR [N5A]
disrupting interaction	MNNANEDTEGGRNCCTCCLSFIFTAGLTSLFLWLSLRADKPKCSIQNFFIPALGKDPNSRDNTTLNFMVRCDNPNKDKGIYYDDVHLNFSTINTTKINSSALVLVGNYTVPKFYQGHKKKAKKWGQVKPLNNQTVLRAVLPNGSAVFRLDLKTQVRFKIVFWKTKRYGVEVGADVEVNGDGVKAQKKGIKMKKSDSSFPLRSSFPISVLMNLLVFFAIR [Q4A]
